The data set deals with the molecule itself. The data set is described as follows: SEC; cleared native HEK293 lysate (100 mM sodium phosphate pH 8.0, 100 mM NaCl, 1 % Triton X-100) on HiLoad 16/600 Superdex 200; fractions blotted for endogenous FAM136A.

What is called stoichiometry N is the number of molecules, sites or subunits per partner or assembly.

B1: FAM136A (natural protein)
chain: not shown
notes: FAM136A, endogenous in HEK293 cells; soluble protein of the mitochondrial intermembrane space; also called endogenous FAM136A; source: endogenous, HEK293 lysate
B1: the “stoichiometry N” value was approximately 2.

Values taken from article PMC12557607, “The mitochondrial disulphide relay substrate FAM136A safeguards IMS proteostasis and cellular fitness” (Redox Biology, 2025).
